Measured values published in publication PMC4148960.

Tests used:
[1] = target: MYC-Grg5 (in COS-7 cells) (UniProt P63002)
GST-fused Grg5 = GST-fused Grg5 (UniProt P63002); experiment: pull-down; GST-Grg1 or GST-Grg5 from lysed BL21 E. coli incubated with S^35-labelled in vitro translated Sox2 proteins; pulled down with Glutathione-sepharose 4B beads; PAGE gel on a phosphorimager
GST-fused Grg1 = GST-fused Grg1 (UniProt Q62440); experiment: as above
Chain of GST-fused Grg1 (Q62440 whole entry, the tested form may be a part): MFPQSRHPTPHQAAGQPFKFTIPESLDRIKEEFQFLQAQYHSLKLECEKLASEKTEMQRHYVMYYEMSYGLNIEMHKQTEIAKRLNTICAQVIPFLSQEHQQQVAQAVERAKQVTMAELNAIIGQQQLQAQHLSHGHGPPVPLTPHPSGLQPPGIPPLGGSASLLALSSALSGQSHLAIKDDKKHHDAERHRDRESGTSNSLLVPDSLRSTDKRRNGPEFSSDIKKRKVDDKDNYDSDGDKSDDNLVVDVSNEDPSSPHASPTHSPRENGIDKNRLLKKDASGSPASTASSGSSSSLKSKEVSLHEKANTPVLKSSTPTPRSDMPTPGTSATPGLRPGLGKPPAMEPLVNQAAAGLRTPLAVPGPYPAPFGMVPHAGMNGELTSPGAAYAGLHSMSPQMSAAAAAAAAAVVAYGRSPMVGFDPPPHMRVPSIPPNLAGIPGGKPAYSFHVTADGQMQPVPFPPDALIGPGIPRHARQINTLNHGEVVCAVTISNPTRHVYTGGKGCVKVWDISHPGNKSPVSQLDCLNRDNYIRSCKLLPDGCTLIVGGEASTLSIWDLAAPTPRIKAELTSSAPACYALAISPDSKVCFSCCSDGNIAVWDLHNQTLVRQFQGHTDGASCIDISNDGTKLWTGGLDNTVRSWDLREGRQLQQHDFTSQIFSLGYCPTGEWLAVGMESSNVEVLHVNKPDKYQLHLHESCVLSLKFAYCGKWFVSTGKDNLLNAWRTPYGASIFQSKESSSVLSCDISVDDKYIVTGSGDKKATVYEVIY

Chain of radiolabelled Sox2^M203–209 (in vitro translated) (P48432 whole entry): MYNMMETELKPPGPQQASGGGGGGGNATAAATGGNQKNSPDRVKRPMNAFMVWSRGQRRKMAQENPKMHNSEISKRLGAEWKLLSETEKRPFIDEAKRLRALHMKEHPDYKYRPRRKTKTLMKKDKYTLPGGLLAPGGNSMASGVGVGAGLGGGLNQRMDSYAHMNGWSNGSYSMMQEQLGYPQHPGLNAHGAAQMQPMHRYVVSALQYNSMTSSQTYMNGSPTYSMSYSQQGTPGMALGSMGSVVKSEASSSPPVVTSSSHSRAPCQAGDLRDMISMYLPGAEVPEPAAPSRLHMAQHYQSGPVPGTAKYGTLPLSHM
Chain of MYC-Grg5 (in COS-7 cells) (P63002 whole entry, the tested form may be a part): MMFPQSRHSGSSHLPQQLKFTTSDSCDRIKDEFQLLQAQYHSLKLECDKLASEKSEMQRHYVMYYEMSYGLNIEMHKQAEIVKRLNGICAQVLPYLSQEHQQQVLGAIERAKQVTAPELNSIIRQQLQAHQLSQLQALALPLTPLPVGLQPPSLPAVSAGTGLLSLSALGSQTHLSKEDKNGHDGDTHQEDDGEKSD
Chain of GST-fused Grg5 (P63002 whole entry, the tested form may be a part): as above
Chain of Sox2^M203–209 mutant (transfected, COS-7 cells) (P48432 whole entry, change not shown): as the sequence (P48432 whole entry) above

subcellular translocation assay: proportion of co-transfected COS-7 cells with altered distribution of MYC-Grg5, mutant against WT Sox2 [1] [%]	fold decrease in the amount pulled down against WT Sox2 (GST-fused Grg5) [fold]	fold decrease in the amount pulled down against WT Sox2 (GST-fused Grg1) [fold]	Substance
50	–	–	Sox2^M203–209 mutant (transfected, COS-7 cells) (from UniProt P48432 1-319) (natural protein)
–	4	4	radiolabelled Sox2^M203–209 (in vitro translated) (from UniProt P48432 1-319) (natural protein)
